Key:
SEC-MALS = target: the molecule itself; assay: SEC-MALS
[1] = target: Rel^NTD (purified, in solution) (Bacillus subtilis 168, UniProt O54408 1-391); assay: ITC
Rel^NTD (purified, in solution), sequence (O54408 1-391): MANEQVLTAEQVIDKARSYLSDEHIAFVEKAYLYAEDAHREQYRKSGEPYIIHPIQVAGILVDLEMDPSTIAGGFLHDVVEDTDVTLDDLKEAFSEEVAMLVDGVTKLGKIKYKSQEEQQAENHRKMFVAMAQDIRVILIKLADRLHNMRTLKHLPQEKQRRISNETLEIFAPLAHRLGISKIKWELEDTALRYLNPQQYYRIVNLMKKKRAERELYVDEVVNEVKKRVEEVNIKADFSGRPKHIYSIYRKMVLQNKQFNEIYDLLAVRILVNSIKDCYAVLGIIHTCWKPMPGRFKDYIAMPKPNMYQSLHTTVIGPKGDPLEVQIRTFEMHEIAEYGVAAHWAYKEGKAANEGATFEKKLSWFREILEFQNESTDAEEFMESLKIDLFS

- Kd [1]: 650 nM
- stoichiometry N [1]: 1
B1: DarB (natural protein, Bacillus subtilis 168)
chain: ISLQSDQLLEATVGQFMIEADKVAHVQVGNNLEHALLVLTKTGYTAIPVLDPSYRLHGLIGTNMIMNSIFGLERIEFEKLDQITVEEVMLTDIPRLHINDPIMKGFGMVINNGFVCVENDEQVFEGIFTRRVVLKELNKHIRSLNK
- stoichiometry N (SEC-MALS): 2
